Test results from patent US20250154283A1 (published 2025).
Numbering of substitutions follows the chain as printed.

T1: biotinylated cynomolgus monkey VWF cysteine knot (CK) domain construct (cynomolgus monkey, biotinylated in vitro (BirA) on the biotinylation tag; one N-glycan)
T1 construct: Expressed in HEK293 EBNA cells; disulfide-linked homodimer; also called cyno VWF CK; cyno VWF CK domain; not shown: in vitro biotinylation tag, HRV-3C site and 3 VWF residues before the CK domain
T1 chain: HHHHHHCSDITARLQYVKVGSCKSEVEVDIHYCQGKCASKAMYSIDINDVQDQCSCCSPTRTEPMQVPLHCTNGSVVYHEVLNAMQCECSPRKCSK

B1: Lib6_P3_B9_scFv (scFv)
scFv: EVQLVQSGAEVKKPGASVKVSCKASGDTFSSHVISWVRQAPGQGLEWMGGINPRTGTTIYAQKLQGRGTMTTDPSTSTAYMELRSLRSDDTAVYYCARTRPWAGLDVWGQGTTVTVSSSGGSTITSYNVYYTKLSSSGTESALTQPASVSGSPGQSITISCTGTNIEYKGVSWYQQHPGKAPKLMIYGVDKRPSGVSNRFSGSKSGNTASLTISGLQAEDEADYYCQAWGTSTAIFGGGTKLTVL
notes: VH-linker-VL; not shown: C-terminal 3xFLAG and SV5 tags
B2: 189_Lib4_scFv (scFv)
scFv: QVQLQESGPGLVKPSQTLSLTCTVSGVTFSSYGWSWIRQPPGKGLEWIGYVDTSGSTDYNPSLKSRVTMSVDTSKNQFSLKVNSVTAADTAVYYCARTTYYYDSSGFARGWFDPWGQGTLVTVSSSGGSTITSYNVYYTKLSSSGTEIVMTQSPATLSLSPGERATLSCRASQSVPSSHLAWYQQKPGQAPRLLIYDATNRAAGIPARFSGSGSGTDFTLTISSLEPEDFAVYYCQQYDNWPSPSFGGGTKVEIK
notes: as for B1
B3: Lib1_P1_E9_scFv (scFv)
scFv: QVQLVQSGAEVKKPGASVKVSCKVSGYTFTSHIIHWVRQAPGKGLEWMGGMNPYSNKAIYAQKFQGRVTMTEDTSTDTAYMELSSLKSEDTAVYYCARDASDYGDYGYYYYYMDVWGKGTTVTVSSSGGSTITSYNVYYTKLSSSGTDIQMTQSPSSVSASVGDRVTITCRASQYIGNDLAWYQQKPGKAPKLLIYEASQRPSGVPSRFSGSGSGTDFTLTISSLQPEDFANYYCQQQYNYPLTFGGGTKVEIK
notes: as for B1
B4: 4142_Lib1_scFv (scFv)
scFv: QVQLVQSGAEVKKPGASVKVSCKVSGYPFTSSGIHWVRQAPGKGLEWMGGVIPLFGTANYAQKFQGRVTMTEDTSTDTAYMELSSLKSEDTAVYYCARIRVSSGWYRDYGMDVWGQGTTVTVSSSGGSTITSYNVYYTKLSSSGTDIQMTQSPSSVSASVGDRVTITCRASQDITNDLAWYQQKPGKAPKLLIYDASRLQSGVPSRFSGSGSGTDFTLTISSLQPEDFANYYCQQTFTTPLTFGGGTKVEIK
notes: as for B1
B5: 4029_Lib1_scFv (scFv)
scFv: B4 scFv with D173S, T175G, N176D, D177F, R198H, S201T, F237S, T239I, L241P
notes: as for B1
B6: 2738_Lib1_scFv (scFv)
scFv: QVQLVQSGAEVKKPGASVKVSCKVSGYTLTDLPIHWVRQAPGKGLEWMGGINPFLGTTIYAQKFQGRVTMTEDTSTDTAYMELSSLKSEDTAVYYCARGVDMLATARDYYYMAIWGKGTTVTVSSSGGSTITSYNVYYTKLSSSGTDIQMTQSPSSVSASVGDRVTITCRASQSIGNDLAWYQQKPGKAPKLLIYGASMRATGVPSRFSGSGSGTDFTLTISSLQPEDFANYYCQQYASDPLTFGGGTKVEIK
notes: as for B1
B7: 4166_Lib4_scFv (scFv)
scFv: QVQLQESGPGLVKPSQTLSLTCTVSGESFSGHFWSWIRQPPGKGLEWIGYISQSGRTDYNPSLKSRVTMSVDTSKNQFSLKVNSVTAADTAVYYCARTLPRIQLWSPRGAFDIWGQGTMVTVSSSGGSTITSYNVYYTKLSSSGTEIVMTQSPATLSLSPGERATLSCRASQSLGRSLAWYQQKPGQAPRLLIYDASHRATGIPARFSGSGSGTDFTLTISSLEPEDFAVYYCQQYVSYPLTFGGGTKVEIK
notes: as for B1
B8: Lib8_P4_D4_scFv (scFv)
scFv: QVQLVQSGAEVKKPGASVKVSCKVSGDTLSNYAIHWVRQAPGKGLEWMGGINPNAGTTIYAQKFQGRVTMTEDTSTDTAYMELSSLKSEDTAVYYCARDSSSWCPVGYYYYYMDVWGKGTTVTVSSSGGSTITSYNVYYTKLSSSGTDIQMTQSPSSVSASVGDRVTITCRASQSIGDFLAWYQQKPGKAPKLLIYDASHLQTGVPSRFSGSGSGTDFTLTISSLQPEDFANYYCQQTSTIPPTFGGGTKVEIK
notes: as for B1
B9: Lib8_P4_C11_scFv (scFv)
scFv: B8 scFv
notes: as for B1
B10: Lib1_P1_A1_scFv (scFv)
scFv: B8 scFv with C104S, P105Q, V106F
notes: as for B1
B11: Lib8_P4_C10_scFv (scFv)
scFv: EVQLVESGGGLVQPGRSLRLSCAASGFNFHNYDMHWVRQAPGKGLEWVSAISGSSDTMDYADSVEGRFTISRDNAKNSLYLQMNSLRAEDTAVYYCVRASWYGTFFDYWGQGTLVTVSSSGGSTITSYNVYYTKLSSSGTDIQMTQSPSSLSASVGDRVTITCRASQDISGWLAWYQQKPGKAPKLLIYAASSLQDGVPSRFSGSGSGTDFTLTISSLQPEDVATYYCQQSYRIPSTFGGGTKVEIK
notes: as for B1
B12: 3964_Lib4_scFv (scFv)
scFv: QVQLQESGPGLVKPSQTLSLTCTVSGASISTHSWSWIRQPPGKGLEWIGYINPSGDIDYNPSLKSRVTMSVDTSKNQFSLKVNSVTAADTAVYYCARGRTGFDSSGFVVGAFDIWGQGTMVTVSSSGGSTITSYNVYYTKLSSSGTEIVMTQSPATLSLSPGERATLSCRASQNVNDNLAWYQQKPGQAPRLLIYDASTRPTGIPARFSGSGSGTDFTLTISSLEPEDFAVYYCQQYLTIPRTFGGGTKVEIK
notes: as for B1
B13: Lib1_P1_D1_scFv (scFv)
scFv: QVQLVQSGAEVKKPGASVKVSCKVSGDTFTDRYIHWVRQAPGKGLEWMGGINTIFGTAIYAQKFQGRVTMTEDTSTDTAYMELSSLKSEDTAVYYCAREGATVSTNFDYWGQGTLVTVSSSGGSTITSYNVYYTKLSSSGTDIQMTQSPSSVSASVGDRVTITCRASQDIRKSLAWYQQKPGKAPKLLIYDISNRPSGVPSRFSGSGSGTDFTLTISSLQPEDFANYYCQQGYSAPYGFGGGTKVEIK
notes: as for B1
B14: Lib4_P2_A5_scFv (scFv)
scFv: QVQLQESGPGLVKPSQTLSLTCTVSGSSISSSSDYWSWIRQPPGKGLEWIGYIDISGDADYNPSLKSRVTMSVDTSKNQFSLKVNSVTAADTAVYYCARHLSSGWYGTYYFDYWGQGTLVTVSSSGGSTITSYNVYYTKLSSSGTEIVMTQSPATLSLSPGERATLSCRASQNIHSNLAWYQQKPGQAPRLLIYDASSRATGIPARFSGSGSGTDFTLTISSLEPEDFAVYYCQQGYTKPLTFGGGTKVEIK
notes: as for B1
B15: Lib1_P1_C6_scFv (scFv)
scFv: QVQLVQSGAEVKKPGASVKVSCKVSGYTFASHYIHWVRQAPGKGLEWMGGMDPATGQTIYAQKFQGRVTMTEDTSTDTAYMELSSLKSEDTAVYYCAKGDRSSWYEVLSFQHWGQGTLVTVSSSGGSTITSYNVYYTKLSSSGTDIQMTQSPSSVSASVGDRVTITCRASQGISTDLAWYQQKPGKAPKLLIYDASILQRGVPSRFSGSGSGTDFTLTISSLQPEDFANYYCQQVRTYPFTFGGGTKVEIK
notes: as for B1
B16: Lib4_P2_B4_scFv (scFv)
scFv: QVQLQESGPGLVKPSQTLSLTCTVSGASLGDQYWSWIRQPPGKGLEWIGYIHPSGDFDYNPSLKSRVTMSVDTSKNQFSLKVNSVTAADTAVYYCARHYSSSWYGTWYFDLWGRGTLVTVSSSGGSTITSYNVYYTKLSSSGTEIVMTQSPATLSLSPGERATLSCRASQNIGTNLAWYQQKPGQAPRLLIYDASVRAAGIPARFSGSGSGTDFTLTISSLEPEDFAVYYCQQSLTTPLTFGGGTKVEIK
notes: as for B1
B17: Lib4_P2_A1_scFv (scFv)
scFv: QVQLQESGPGLVKPSQTLSLTCTVSGASFGDNYWSWIRQPPGKGLEWIGYIDTSGSSDYNPSLKSRVTMSVDTSKNQFSLKVNSVTAADTAVYYCARVSWGYYAMDVWGQGTTVTVSSSGGSTITSYNVYYTKLSSSGTEIVMTQSPATLSLSPGERATLSCRASQGISGRLAWYQQKPGQAPRLLIYDVSTRATGIPARFSGSGSGTDFTLTISSLEPEDFAVYYCQQYDTSAPLTFGGGTKVEIK
notes: as for B1
B18: 3552_Lib8_scFv (scFv)
scFv: EVQLVESGGGLVQPGRSLRLSCAASEFTFGDYDMHWVRQAPGKGLEWVSAISSSGSNRDYADSVEGRFTISRDNAKNSLYLQMNSLRAEDTAVYYCARDAWFGDAFDIWGQGTMVTVSSSGGSTITSYNVYYTKLSSSGTDIQMTQSPSSLSASVGDRVTITCRASESVSSWLAWYQQKPGKAPKLLIYGASTLEGGVPSRFSGSGSGTDFTLTISSLQPEDVATYYCQQSYSFPDFGGGTKVEIK
notes: as for B1

Each binder was assayed against T2, biotinylated human VWF cysteine knot (CK) domain construct (human, UniProt P04275 2724-2813, biotinylated in vitro (BirA) on the biotinylation tag; one N-glycan) (assay: SPR, scFv captured via anti-SV5, CK domain injected, pH 5.5, apparent Kd;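 further: scFvs from crude yeast supernatants captured on chip-bound anti-SV5 antibody, Kd computed as koff divided by kon, dimeric CK construct likely makes affinity appear higher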).
T2 construct: Expressed in HEK293 EBNA cells; disulfide-linked homodimer; also called human VWF CK; human VWF CK domain; not shown: in vitro biotinylation tag, HRV-3C site and 3 VWF residues before the CK domain

Binder | Kd [nM]
B1 | 1.22
B2 | 0.269
B3 | 0.639
B4 | 0.634
B5 | 2.58
B6 | 0.519
B7 | 0.567
B8 | 0.397
B9 | 0.617
B10 | 0.202
B11 | 0.487
B12 | 0.737
B13 | 0.338
B14 | 0.123
B15 | 1.43
B16 | 0.225
B17 | 0.235
B18 | 0.412

Molecular target: T1, biotinylated cynomolgus monkey VWF …
Experiment: SPR, scFv captured via anti-SV5, CK domain injected, pH 7.4, apparent Kd;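 further: scFvs from crude yeast supernatants printed on an amine-coupled anti-SV5 lawn, Kd computed as koff over kon, likely overestimating affinity because the CK construct is dimeric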

Binder | Kd [nM]
B1 | 1.03
B2 | 0.441
B3 | 0.536
B4 | 0.999
B5 | 4.67
B6 | 0.922
B7 | 0.38
B8 | 0.206
B9 | 0.155
B10 | 1.08
B11 | 1.01
B12 | 0.689
B13 | 0.187
B14 | 0.128
B15 | 0.697
B16 | 0.096
B17 | 0.031
B18 | 0.018

The binders below were run against T2, biotinylated human VWF cysteine knot … in the same assay as above.

Binder | Kd [nM]
B1 | 1.41
B2 | 1.37
B3 | 0.915
B4 | 0.839
B5 | 4.27
B6 | 1.18
B7 | 0.958
B8 | 0.917
B9 | 1.08
B10 | 1.38
B11 | 3.15
B12 | 1.13
B13 | 0.589
B14 | 0.493
B15 | 0.691
B16 | 1.07
B17 | 1.2
B18 | 1.16
